How the values were obtained:
[1] = target: T1, Spc110^891-944 (S. cerevisiae, UniProt P32380 891-944); assay: crystal structure
T1 sequence (looked up): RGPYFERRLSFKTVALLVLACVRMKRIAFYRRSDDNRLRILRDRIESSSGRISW

[2] = target: the molecule itself; assay: crystal structure
[3] = target: T1, Spc110^891-944; assay: SAXS

B1: Kluyveromyces lactis calmodulin (natural protein)
chain: not shown
modifications: disulfide between Cys79 of the two calmodulins in the crystal
[1]
  stoichiometry N: 1 calmodulin per Spc110 CBD (2:2)
[2]
  stoichiometry N: 2 calmodulin chains
[3]
  stoichiometry N: 1 calmodulin per Spc110^891-944
